Results from patent US20230340137A1 (published 2023).

Target: T1, B-cell maturation antigen (BCMA) (human, UniProt Q02223 1-184)
T1 sequence (looked up): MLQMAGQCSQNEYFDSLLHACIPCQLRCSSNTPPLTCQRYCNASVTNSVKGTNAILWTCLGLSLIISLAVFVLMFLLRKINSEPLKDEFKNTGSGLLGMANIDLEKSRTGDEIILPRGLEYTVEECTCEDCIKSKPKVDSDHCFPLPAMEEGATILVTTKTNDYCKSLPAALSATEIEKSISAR
Assay: cell-based or functional assay

B1: PF-06863135 (bispecific antibody, human IgG2)
heavy 1: EVQLLESGGGLVQPGGSLRLSCAASGFTFSSYPMSWVRQAPGKGLEWVSAIGGSGGSLPYADIVKGRFTISRDNSKNTLYLQMNSLRAEDTAVYYCARYWPMDIWGQGTLVTVSSASTKGPSVFPLAPCSRSTSESTAALGCLVKDYFPEPVTVSWNSGALTSGVHTFPAVLQSSGLYSLSSVVTVPSSNFGTQTYTCNVDHKPSNTKVDKTVERKCEVECPECPAPPVAGPSVFLFPPKPKDTLMISRTPEVTCVVVAVSHEDPEVQFNWYVDGVEVHNAKTKPREEQFNSTFRVVSVLTVVHQDWLNGKEYKCKVSNKGLPSSIEKTISKTKGQPREPQVYTLPPSREEMTKNQVSLTCEVKGFYPSDIAVEWESNGQPENNYKTTPPMLDSDGSFFLYSKLTVDKSRWQQGNVFSCSVMHEALHNHYTQKSLSLSPGK
light 1: EIVLTQSPGTLSLSPGERATLSCRASQSVSSSYLAWYQQKPGQAPRLLMYDASIRATGIPDRFSGSGSGTDFTLTISRLEPEDFAVYYCQQYQSWPLTFGQGTKVEIKRTVAAPSVFIFPPSDEQLKSGTASVVCLLNNFYPREAKVQWKVDNALQSGNSQESVTEQDSKDSTYSLSSTLTLSKADYEKHKVYACEVTHQGLSSPVTKSFNRGEC
heavy 2: EVQLVESGGGLVQPGGSLRLSCAASGFTFSDYYMTWVRQAPGKGLEWVAFIRNRARGYTSDHNPSVKGRFTISRDNAKNSLYLQMNSLRAEDTAVYYCARDRPSYYVLDYWGQGTTVTVSSASTKGPSVFPLAPCSRSTSESTAALGCLVKDYFPEPVTVSWNSGALTSGVHTFPAVLQSSGLYSLSSVVTVPSSNFGTQTYTCNVDHKPSNTKVDKTVERKCRVRCPRCPAPPVAGPSVFLFPPKPKDTLMISRTPEVTCVVVAVSHEDPEVQFNWYVDGVEVHNAKTKPREEQFNSTFRVVSVLTVVHQDWLNGKEYKCKVSNKGLPSSIEKTISKTKGQPREPQVYTLPPSREEMTKNQVSLTCLVKGFYPSDIAVEWESNGQPENNYKTTPPMLDSDGSFFLYSRLTVDKSRWQQGNVFSCSVMHEALHNHYTQKSLSLSPGK
light 2: not shown
EC50 of cell viability (killing) of H929-Luc cells co-cultured with human CD3+ T cells, 72 hr, luminescence; with GSI: 5.5 pM | EC50 of cell viability (killing) of H929-Luc cells co-cultured with human CD3+ T cells, 72 hr, luminescence; without GSI: 167 pM | EC50 of cell viability (killing) of Molp8-Luc cells co-cultured with human CD3+ T cells, 72 hr, luminescence; with GSI: 20.2 pM | EC50 of cell viability (killing) of Molp8-Luc cells co-cultured with human CD3+ T cells, 72 hr, luminescence; without GSI: 108 pM | EC50 of cell viability (killing) of OPM2-Luc cells co-cultured with human CD3+ T cells, 72 hr, luminescence; with GSI: 3.3 pM | EC50 of cell viability (killing) of OPM2-Luc cells co-cultured with human CD3+ T cells, 72 hr, luminescence; without GSI: 52.8 pM | EC50 of cell viability (killing) of RPMI8226-Luc cells co-cultured with human CD3+ T cells, 72 hr, luminescence; with GSI: 1.7 pM | EC50 of cell viability (killing) of RPMI8226-Luc cells co-cultured with human CD3+ T cells, 72 hr, luminescence; without GSI: 9.2 pM
